# ± gives the standard deviation of the averaged measurements.
# B1: library; a variant is named by its letters at N, in order (parent)
# chain: GCUGUCACCGAGAAACUGUGAAGUAUAUCUUAAACCUGGGCACUUAAAAGAUAUAUGGAGUUAGUAGUGCAACCUGCUCGGUCUGAUGAGUCCNNNNNNGGACGAAACAGC
# How the values were obtained:
# [1] = variants of: B1; experiment: normalized RNA/DNA level without ligand (relative to sTRSVctl = 100) (log10 (% of sTRSVctl)); HEK293T; ligand: cyclic di-GMP (c-di-GMP-II aptamer); higher = less ribozyme self-cleavage, higher mRNA level; conditions: reporter: mCherry (pCS4076), ligand present: no
# Procedure, shortened: (§1)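 HEK293T cells were transfected with library plasmids carrying ribozyme switches linked to an mCherry reporter, or an eGFP reporter in some ligand experiments, at 4 µg per well of a 6-well plate, with any ligand added 1 h beforehand. After 72 h, total RNA was extracted with EDTA, reverse-transcribed, amplified, barcoded and sequenced. RNA level was defined as RNA reads over DNA reads, normalized to a spiked-in non-cleaving sequence or to the top-ranked sequences. That value was multiplied by 100 and converted to log10, the top set was 25 sequences, and only sequences with ≥100 DNA reads were retained.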
# [2] = variants of: B1; experiment: normalized RNA/DNA level with ligand (relative to sTRSVctl = 100) (log10 (% of sTRSVctl)); HEK293T; ligand: cyclic di-GMP (c-di-GMP-II aptamer); ligand concentration (+) RNA-Seq: 1 mM; higher = less ribozyme self-cleavage, higher mRNA level; conditions: reporter: mCherry (pCS4076), ligand present: yes
# Procedure, shortened: as §1
Variant,normalized RNA/DNA level without ligand (log10) [1],normalized RNA/DNA level with ligand (log10) [2]
UAACUG,1.73 ± 0.017,1.84 ± 0.13
UAACUA,1.688 ± 0.0017,1.82 ± 0.12
GAAAGC,1.59 ± 0.029,1.72 ± 0.068
GAAAGG,1.56 ± 0.041,1.72 ± 0.12
CAAGCG,1.74 ± 0.052,1.85 ± 0.11
CAAGCU,1.67 ± 0.021,1.83 ± 0.071
CAAGCA,1.63 ± 0.035,1.76 ± 0.11
CAAGCC,1.76 ± 0.022,1.85 ± 0.087
AAAAGU,1.52 ± 0.071,1.71 ± 0.057
CAAAAG,1.656 ± 0.0082,1.77 ± 0.14
CAAACU,1.54 ± 0.045,1.68 ± 0.072
CAAACG,1.776 ± 0.013,1.84 ± 0.059
UAAGAC,1.647 ± 0.0022,1.82 ± 0.13
UAAGAA,1.597 ± 0.008,1.74 ± 0.13
UAAGAG,1.61 ± 0.017,1.74 ± 0.086
UAAGAU,1.597 ± 0.0022,1.79 ± 0.13
AAACCC,1.718 ± 0.0046,1.86 ± 0.09
AAACCA,1.57 ± 0.054,1.76 ± 0.094
AAACCU,1.72 ± 0.018,1.84 ± 0.097
AAAGCG,1.689 ± 0.0061,1.78 ± 0.14
AAAGCA,1.656 ± 0.0051,1.77 ± 0.11
AAAGCC,1.7 ± 0.025,1.84 ± 0.13
AAAACU,1.669 ± 0.0017,1.79 ± 0.086
AAAACA,1.51 ± 0.072,1.7 ± 0.074

Variant,normalized RNA/DNA level without ligand (log10) [1],normalized RNA/DNA level with ligand (log10) [2]
AAAACC,1.68 ± 0.014,1.81 ± 0.083
CAAAGG,1.59 ± 0.033,1.75 ± 0.081
CAAAGC,1.717 ± 0.011,1.84 ± 0.091
CAACGU,1.67 ± 0.025,1.82 ± 0.096
CAACGG,1.671 ± 0.012,1.77 ± 0.061
CAACGC,1.757 ± 0.014,1.84 ± 0.11
CAACGA,1.56 ± 0.063,1.73 ± 0.11
AAAGGC,1.6 ± 0.044,1.77 ± 0.14
AAACGC,1.67 ± 0.027,1.85 ± 0.082
AAACGA,1.39 ± 0.15,1.57 ± 0.097
AAACGU,1.47 ± 0.095,1.62 ± 0.18
AAAGAA,1.34 ± 0.14,1.55 ± 0.1
AAAGAG,1.44 ± 0.097,1.63 ± 0.1
UAAAGU,1.54 ± 0.076,1.77 ± 0.048
UAAAGG,1.635 ± 0.0018,1.78 ± 0.088
UAAAGC,1.676 ± 0.0024,1.82 ± 0.1
UAAAAU,1.615 ± 0.00033,1.79 ± 0.099
UAAAAA,1.65 ± 0.048,1.78 ± 0.12
UAAAAC,1.697 ± 0.003,1.8 ± 0.1
AAAAAG,1.45 ± 0.09,1.66 ± 0.082
AAAAAU,1.547 ± 0.0027,1.72 ± 0.13
AAAAAC,1.61 ± 0.031,1.74 ± 0.13
UAAAUC,1.63 ± 0.033,1.79 ± 0.17
CAACUU,1.49 ± 0.093,1.69 ± 0.078

Variant,normalized RNA/DNA level without ligand (log10) [1],normalized RNA/DNA level with ligand (log10) [2]
CAACUC,1.685 ± 0.011,1.82 ± 0.086
CAACUG,1.75 ± 0.034,1.82 ± 0.13
CAACUA,1.39 ± 0.069,1.6 ± 0.15
UAACAG,1.68 ± 0.02,1.86 ± 0.098
UAACAC,1.68 ± 0.035,1.83 ± 0.13
UAACAU,1.62 ± 0.019,1.76 ± 0.08
UAACAA,1.7 ± 0.034,1.83 ± 0.16
UAACCG,1.72 ± 0.12,1.81 ± 0.13
UAACCU,1.71 ± 0.031,1.86 ± 0.072
UAACCA,1.74 ± 0.036,1.86 ± 0.13
UAACCC,1.77 ± 0.021,1.9 ± 0.08
GAAGAC,1.563 ± 0.0055,1.76 ± 0.12
GAAGAG,1.5 ± 0.14,1.71 ± 0.094
CAAGGA,1.46 ± 0.077,1.64 ± 0.064
CAAGGG,1.6 ± 0.063,1.8 ± 0.072
CAAGGC,1.705 ± 0.0097,1.82 ± 0.12
CAAGGU,1.64 ± 0.037,1.8 ± 0.1
CAAAUG,1.64 ± 0.017,1.82 ± 0.068
CAAAUC,1.61 ± 0.034,1.76 ± 0.091
UAAUAA,1.66 ± 0.018,1.8 ± 0.085
CAAGAC,1.64 ± 0.06,1.8 ± 0.082
CAAGAU,1.6 ± 0.048,1.79 ± 0.086
CAAGAG,1.6 ± 0.023,1.78 ± 0.14
GAAGUA,1.64 ± 0.021,1.76 ± 0.061

Variant,normalized RNA/DNA level without ligand (log10) [1],normalized RNA/DNA level with ligand (log10) [2]
GAAGUG,1.732 ± 0.0044,1.81 ± 0.095
GAAGUC,1.59 ± 0.021,1.74 ± 0.038
AAAAUA,1.48 ± 0.041,1.69 ± 0.1
GAACGG,1.703 ± 0.0094,1.78 ± 0.082
GAACGC,1.64 ± 0.07,1.78 ± 0.058
CAACCC,1.719 ± 0.015,1.82 ± 0.12
CAACCA,1.54 ± 0.084,1.71 ± 0.1
CAACCG,1.817 ± 0.009,1.88 ± 0.071
UAAGUC,1.663 ± 0.0049,1.8 ± 0.11
GAAAUC,1.659 ± 0.012,1.81 ± 0.11
CAAGUG,1.68 ± 0.045,1.84 ± 0.12
CAAGUC,1.7 ± 0.055,1.78 ± 0.14
UAAACC,1.77 ± 0.027,1.85 ± 0.076
UAAACG,1.747 ± 0.0073,1.85 ± 0.068
UAAACU,1.71 ± 0.061,1.85 ± 0.15
GAAGGC,1.62 ± 0.023,1.79 ± 0.13
GAAGGU,1.58 ± 0.08,1.77 ± 0.052
GAAGGG,1.53 ± 0.048,1.69 ± 0.079
GAAACG,1.61 ± 0.053,1.77 ± 0.069
GAAACC,1.722 ± 0.0059,1.85 ± 0.1
GAAACU,1.63 ± 0.035,1.79 ± 0.1
CAACAG,1.6987 ± 0.0016,1.85 ± 0.13
CAACAC,1.58 ± 0.028,1.77 ± 0.12
UAAGGG,1.58 ± 0.031,1.73 ± 0.13

Variant,normalized RNA/DNA level without ligand (log10) [1],normalized RNA/DNA level with ligand (log10) [2]
UAAGGU,1.579 ± 0.013,1.77 ± 0.073
UAAGGC,1.66 ± 0.058,1.81 ± 0.056
GAACCG,1.7241 ± 0.00012,1.81 ± 0.1
GAACCU,1.69 ± 0.033,1.86 ± 0.08
GAACCA,1.677 ± 0.0078,1.8 ± 0.13
GAAAAC,1.59 ± 0.016,1.74 ± 0.063
UAAGCU,1.7 ± 0.031,1.83 ± 0.097
UAAGCC,1.78 ± 0.024,1.88 ± 0.091
UAAGCA,1.75 ± 0.018,1.87 ± 0.082
UAAGCG,1.75 ± 0.023,1.86 ± 0.089
GAACAU,1.64 ± 0.033,1.78 ± 0.097
GAACAC,1.641 ± 0.014,1.78 ± 0.1
GAACAA,1.55 ± 0.03,1.7 ± 0.14
GAACUG,1.66 ± 0.059,1.75 ± 0.089
GAACUU,1.68 ± 0.051,1.83 ± 0.096
GAACUC,1.725 ± 0.004,1.85 ± 0.1
AAAGUA,1.42 ± 0.076,1.66 ± 0.12
AAAGUG,1.52 ± 0.099,1.67 ± 0.074
GAAGCC,1.78 ± 0.034,1.89 ± 0.12
GAAGCU,1.715 ± 0.017,1.83 ± 0.11

# Source: the supplement of paper PMC6757056
